# Data reported in patent US20060058236A1, “Endogenously-formed conjugate of albumin” (priority 2004, published 2006).
# What was measured:
# [1] = Pharmacokinetic profile in rats dosed intravenously with 125I-labeled lysozyme or its PEG conjugates; assay type: in vivo, rat; conditions: intravenous
# Description: Lysozyme (66 mg in […] in 0.1 M sodium phosphate buffer pH 7.3) was mixed with 605 μCi of Na^125I (ICN Biomedicals, Irvine, Calif.), in Iodo-Gen® coated tube (Pierce Chemical Company, Rockford, Ill.), and allowed to react for 1 hour at room temperature with 20 min intervals mixing. The iodination reaction was stopped by removing the free ^125I on a Sephadex G-25F gel filtration column (17 mL), and collecting the ^125I-lysozyme, which was then reacted with either mPEG-DTB-NPC and mPEG-NPC, and purified by cation exchange chromatography as described above.
# Male Sprague-Dawley rats (250-330 g each, 3 animals per formulation per experiment) were dosed either by intravenous (via a lateral tail vein) or by subcutaneous (dorsally above the right rear leg) with ^125I labeled lysozyme or its PEG conjugates (0.35 mL, 0.4 mg protein/mL, 4.6×10^6 cpm/mL). Blood samples (0.4 mL) were collected via the retro-orbital sinus. All injections blood collections were performed while the animals were under inhaled anesthesia (isoflurane/O2). Samples were collected on heparin into polypropylene tubes and stored on ice for no longer than one hour before being pipetted in triplicate (0.100 mL) into fresh polypropylene tubes. Blood samples were collected at the following times after dosing (no single rat had blood collected at all of the following times): 30 sec, 15 min, 30 min and 1, 2, 3, 4, 6, 8, 24, 48, 72, 96, 120 and 168 hours post-dose. Note that the last 4 time points were added for the longer subcutaneous experiments. The samples were then counted for ^125I in a Packard™ 5000 gamma counter. The cpm counts were converted to concentration according to the specific activity of the samples.
# [2] = Decomposition of PEG-DTB-lysozyme conjugates in cysteine solution, HPLC; assay type: in vitro ADME; conditions: 0.6 mM cysteine, room temperature, pH 7.4, HPLC
# Description: (§1) Conjugates of PEG-DTB-lysozyme were prepared as described in Example 1A. The conjugates (100 μg/mL=0.066 mM) were incubated in 0.6 mM cysteine or with 4% BSA at room temperature (22-24° C.), in 10 mM phosphate buffer pH 7.4 containing 2 mM EDTA. Aliquots were taken at various time points, reactions were stopped with 20 mM iodoacetamide, and stored at 2-8° C. until analysis.
# For the conjugates incubated with cysteine, analysis of the aliquots was as done follows. The samples were diluted 1/10 in 10 mM NaPO4 pH 7.4 and analyzed on a carboxymethyl (CM) cation exchanger column.
# (§2) HPLC was performed with the following conditions: Column: TOSOH TSK CM-5PW 10 micron (7.5 mm×7.5 cm); Mobile phase: (A) 10 mM NaPO4 pH 7.4 and (B) 500 mM NaCl in 10 mM NaPO4 pH 7.4; Gradient: 5 min 100% A, 20 min 0% B to 100% B; Flow rate: 1 mL/min; Fluorescence detector: λex 295 nm, λem 360 nm (slit 30 nm); and injection volume, 100 μL.
# bovine serum albumin = target: T1, bovine serum albumin (Bos taurus, UniProt P02769); assay: Decomposition of PEG-DTB-lysozyme conjugates in 4% BSA solution, HPLC; assay type: in vitro ADME; conditions: room temperature, pH 7.4, HPLC after Q spin column
# T1 construct: purchased Proliant (Ankeny, IA)
# Description: as §1
# For the conjugates incubated with BSA, analysis of the samples was done by diluting the samples 1/10 in 10 mM PO4 pH 7.4, passing through Q spin columns (Vivascience) in order to trap the albumin and any of its related products, and then analyzing on the same CM column.
# as §2
# Micrococcus luteus = Micrococcus luteus turbidity assay of active lysozyme after cleavage of the conjugate; assay type: biochemical
# Description: A Micrococcus luteus turbidity assay was used to measure the amount of active lysozyme regenerated after cleavage of the conjugate.
# At various time points, aliquots from the incubation vials were added to iodoacetamide to a final concentration of 20 mM, in order to stop the cleavage reaction. Samples were stored at 2-8° C. prior to analysis.
# Micrococcus luteus stock solution was prepared at 0.3 mg/mL in 100 mM KPO4 pH 7. Lysozyme standards solutions were prepared at 1, 2, 4, 6, 8, and 10 μg/mL in PBS and a lysozyme standard curve was constructed (not shown). The samples from the cleavage reactions were diluted 1/10 in PBS. For the assay, 50 μL of standard, sample, or control were added per well to 96-well microtiter plates. To each well, 200 μL of Micrococcus luteus were added, and without delay, plates were read at 450 nm at 25° C. in a plate reader of a period of 10 min, in 30 second reading intervals.
# The slopes (ΔA/min) were calculated for the first 5 minutes of the reading, and the corresponding lysozyme concentrations were extrapolated from the lysozyme standard curve.
# human serum albumin = human serum albumin (Homo sapiens, UniProt P02768); assay: Incubation of Epo conjugates with human serum albumin, SDS-PAGE and anti-HSA immunoblot; assay type: in vitro ADME; conditions: 0.05% HSA, 21 hours at 37° C., no small molecule thiols
# Description: mPEG-DTB-Epo (prepared as described above), mPEG-Epo, or Epo (0.2 mg/mL) was incubated with 0.05% human serum albumin (HSA) in 100 mM HEPES, 2 mM EDTA, pH 7.5 buffer for 21 hours at 37° C. […] The SDS-PAGE gel stained with SYPRO™ red protein stain is shown in FIG. 14A and an immunoblot probed with anti-HSA is shown in FIG. 14B.
# T1 sequence (P02769 25-607): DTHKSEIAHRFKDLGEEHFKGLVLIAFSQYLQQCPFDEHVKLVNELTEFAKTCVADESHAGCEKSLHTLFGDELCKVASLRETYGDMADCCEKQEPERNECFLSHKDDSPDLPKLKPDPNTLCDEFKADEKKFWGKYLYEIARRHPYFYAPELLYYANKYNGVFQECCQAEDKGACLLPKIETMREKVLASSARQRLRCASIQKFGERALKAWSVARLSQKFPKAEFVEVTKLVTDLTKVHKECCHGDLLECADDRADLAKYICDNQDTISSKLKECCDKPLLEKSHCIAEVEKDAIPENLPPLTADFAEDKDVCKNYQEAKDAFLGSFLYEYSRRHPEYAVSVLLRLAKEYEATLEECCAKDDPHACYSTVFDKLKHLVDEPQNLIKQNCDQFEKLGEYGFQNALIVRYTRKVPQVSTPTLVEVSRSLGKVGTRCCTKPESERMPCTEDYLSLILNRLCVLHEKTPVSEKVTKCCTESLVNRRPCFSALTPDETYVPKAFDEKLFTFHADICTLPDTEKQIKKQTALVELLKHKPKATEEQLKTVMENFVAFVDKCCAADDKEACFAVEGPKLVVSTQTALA
substance,measurement,setting,value
lysozyme: lysozyme as a model therapeutic agent,clearance from the blood stream / circulation lifetime,[1]; 24 hour period,cleared rapidly
mPEG12K-DTB-lysozyme: methoxypolyethylene glycol (12 kDa) joined to lysozyme through a methyl-dithiobenzyl urethane linkage,calculated half-life of remaining conjugate upon incubation in cysteine,[2],60 min
same,"AUC values, cleavable vs noncleavable conjugate",[1],similar
same,"half-lives, cleavable vs noncleavable conjugate",[1],similar
same,calculated half-life of remaining conjugate upon incubation in BSA,bovine serum albumin,6 h
mPEG5K-DTB-lysozyme: methoxypolyethylene glycol (5 kDa) joined to lysozyme through a methyl-dithiobenzyl urethane linkage,active lysozyme regenerated from the cysteine cleavage,"Micrococcus luteus; 0.6 mM cysteine, 37° C.",74 µg/mL
same,active lysozyme concentration after cleavage with BSA,"Micrococcus luteus; 4% BSA, 37° C., after 24 hours",approximately 18 μg/mL
same,active lysozyme after BSA cleavage as percent of that from cysteine cleavage,Micrococcus luteus; 24 hours,24%
same,release of lysozyme from the PEG in saline,Micrococcus luteus; saline at 37° C. for up to 24 hours,did not induce release of the lysozyme
same,calculated half-life of remaining conjugate upon incubation in cysteine,[2],45 min
same,calculated half-life of remaining conjugate upon incubation in BSA,bovine serum albumin,5 h
"Epo: Recombinant, human erythropoietin (EPO, EPREX)",formation of albumin-Epo conjugate,human serum albumin,Neither Epo alone nor the noncleavable mPEG-Epo formed the albumin-Epo conjugate
